Laboratory results as given in FireProtDB (doi:10.1093/protein/10.5.575).

Conditions: Bos taurus, pH 7, Absorbance, phosphate 0.1 M, reversible: yes, whole UniProt chain shown

B1: Cytochrome b5 wild type, P00171 (protein)
chain: MAEESSKAVKYYTLEEIQKHNNSKSTWLILHYKVYDLTKFLEEHPGGEEVLREQAGGDATENFEDVGHSTDARELSKTFIIGELHPDDRSKITKPSESIITTIDSNPSWWTNWLIPAISALFVALIYHLYTSEN
30 °C, Urea
  denaturant midpoint (higher = more stable): 7.1 M
Thermal
  Tm: 66.2 °C
  unfolding enthalpy (van 't Hoff): 71.3 kcal/mol
